± gives the standard deviation.
Assay: protein stability index of a GFP-peptide fusion (GPS, HEK-293T) (PSI 1-6); higher = more stable
Details: c terminus: a fixed tail appended
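Note: 24-mer peptide tiles fused after GFP, lentivirally expressed, FACS-sorted into six equal bins by GFP/DsRed ratio, decoded by Illumina sequencing, PSI is the read-weighted mean bin number.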

| Sequence | protein stability index (treatment: DMSO) | protein stability index (treatment: MLN4924 1 uM, 8 h) |
| --- | --- | --- |
| PGGGGSPGACPALGTKSCSSSCAV [RTN3] | 3.73 ± 0.42 | 4.07 ± 0.22 |
| PGQEKGSALEGRADTTTGSAAGPP [EHMT1] | 5.39 ± 0.22 | 5.48 ± 0.17 |
| PGRSALIVAVLCYINLLNYMDRFT [SPNS1] | 2.81 ± 0.88 | 3.44 ± 0.31 |
| PHEDHVFLVANFSQIETLTSVFQK [MATN2] | 2.25 ± 0.24 | 2.35 ± 0.16 |
| PHGQYGGHHQGMPGYLPGAMPPYG [ZNF207] | 2.93 ± 0.33 | 3.09 ± 0.41 |
| PKARKQGVSPADMYRWKLSSHEPC [ADAMTSL2] | 2.94 ± 0.27 | 3.25 ± 0.14 |
| PKEEQQQALEQFAAAAAHSTPVRR [EPB41L3] | 5.37 ± 0.087 | 5.22 ± 0.33 |
| PKKKHLDYLIQATNETNVNIPQMA [SNAP91] | 3.67 ± 0.13 | 3.43 ± 0.33 |
| PLMGETQERERVLTHFSRRYCQCN [PSD2] | 3.13 ± 0.38 | 3.62 ± 0.25 |
| PLSLVKRTDLKDLIIFDKQSSQRM [CEP70] | 2.97 ± 0.51 | 3.18 ± 0.44 |
| PNIPKAKSLDGVTNDRTASQGQWG [DHCR7] | 4.65 ± 0.29 | 4.84 ± 0.29 |
| PNIVVAIAGNKCDLIDVREVMERD [RAB22A] | 3.68 ± 0.14 | 3.68 ± 0.25 |
| PNKGLLSDSMTDVPVDTGVAARTP [TPD52L2] | 4.9 ± 0.17 | 4.93 ± 0.16 |
| PPLREIILGPSSAYTQTQFHNLRN [NFE2L1] | 2.47 ± 0.15 | 2.65 ± 0.4 |
| PQKTYSVKVLAFTSIGDGPLSSDI [PTPRD] | 2.17 ± 0.29 | 1.89 ± 0.3 |
| PQTRSGPECGLAKKPPEESTCFER [ADAMTSL2] | 5.05 ± 0.22 | 5.08 ± 0.33 |
| PQTVGVGRARFTTYEVRMRTNLPI [SNX12] | 2.61 ± 0.22 | 2.6 ± 0.34 |
| PRNSDMKNQGEENGFPDSTGDPLP [EDARADD] | 5.53 ± 0.26 | 5.36 ± 0.13 |
| PRQVSYTPQHHEKQYAMQRPNDDS [IQUB] | 4.78 ± 0.22 | 4.77 ± 0.12 |
| PRTNQWSPVVAMTSRRSGVGLAVV [KLHL20] | 2.47 ± 0.51 | 2.47 ± 0.33 |
| PSEPSAPLPAGVPPLEDFEVLDGV [FKBP8] | 5.49 ± 0.18 | 5.53 ± 0.11 |
| PSPMPTHRSYLGPGSTSPLETSGN [SLC6A17] | 4.13 ± 0.29 | 4.47 ± 0.26 |
| PSRQYATLDVYNPFETREPPPAYE [SCAMP3] | 3.95 ± 0.27 | 4.14 ± 0.21 |

| Sequence | protein stability index (treatment: DMSO) | protein stability index (treatment: MLN4924 1 uM, 8 h) |
| --- | --- | --- |
| PSTVGAEAQEEFLRVLGSMCQRLR [DFFB] | 2.28 ± 0.34 | 2.2 ± 0.32 |
| PTYGRSFTLASSSDTRVGAPATGS [CHIT1] | 4.29 ± 0.25 | 4.12 ± 0.36 |
| PVKSYDYLLKFLLVGDSDVGKGEI [RAB40C] | 2.06 ± 0.19 | 2 ± 0.24 |
| PVKTLPFSPSQFLNFWNKQDTLEL [MYBL2] | 2.36 ± 0.37 | 2.43 ± 0.31 |
| PYKCPECGKSFSRSSHLVIHERTH [ZNF263] | 3.23 ± 0.54 | 3.28 ± 0.64 |
| QAGAARLEEELRQLKEEMARHLRE [PRPH] | 4.15 ± 0.37 | 4.63 ± 0.3 |
| QALQKEKETLAVNYEKEEEFLTNE [CCDC6] | 5.39 ± 0.15 | 5.3 ± 0.24 |
| QAPISAPEYTYGISNIDTTIEGTS [MFF] | 4.67 ± 0.42 | 4.55 ± 0.21 |
| QAQMIHPKPADFRNPGPGRHRLIT [INTS4] | 3.94 ± 0.26 | 3.92 ± 0.24 |
| QASPYHPGSCGAGAPSPGSSDVST [ELF3] | 4.57 ± 0.16 | 4.52 ± 0.43 |
| QEWSFLPSITRKRRYVASVSLHDR [KLHL12] | 2.41 ± 0.11 | 2.51 ± 0.33 |
| QFANLVLHQTVERIHVGKKYGDIP [LSM1] | 2.13 ± 0.22 | 2.09 ± 0.23 |
| QGHPQTGCECEDGPDGQEMDPPNP [GAGE1] | 5.39 ± 0.33 | 5.67 ± 0.14 |
| QHYQQYMQQLYQVQLAQQQAALQK [ACBD3] | 2.23 ± 0.23 | 2.21 ± 0.23 |
| QKEQQERLREAAALGDIREVQKLV [ANKRD40] | 4.67 ± 0.25 | 4.74 ± 0.25 |
| QKILCSKSENARLVVQIDNAKLAA [KRT33B] | 3.21 ± 0.27 | 3.33 ± 0.26 |
| QKKIESYLHNHFIGEGMTKYDYLM [TENT5D] | 2.13 ± 0.45 | 2.18 ± 0.27 |
| QKRETLSPLCLIPMVTSPREEQQL [KCTD13] | 3.98 ± 0.18 | 4.08 ± 0.15 |
| QLGLGRGASTFKEEPQTVPEARSR [JUNB] | 5.04 ± 0.1 | 5.22 ± 0.26 |
| QLLWREFFYTAATNNPRFDKMEGN [CRY1] | 2.02 ± 0.23 | 2 ± 0.38 |
| QLQPTFTPMRVALAGTFHYYSCER [NSDHL] | 2.18 ± 0.24 | 2.26 ± 0.044 |
| QMNLLQKYSLLKLTALLEKYTPSN [DLC1] | 2.48 ± 0.55 | 2.41 ± 0.49 |
| QNMMNHCNLWDSHHPEVPQRILRI [HDAC6] | 2.2 ± 0.24 | 2.15 ± 0.083 |

| Sequence | protein stability index (treatment: DMSO) | protein stability index (treatment: MLN4924 1 uM, 8 h) |
| --- | --- | --- |
| QQKLVIDTVTEVTARMEMLIEELY [CBY2] | 2.55 ± 0.26 | 2.7 ± 0.42 |
| QRLLNTPRRKKLKSTSKYIYQTLF [GMCL1] | 2.08 ± 0.73 | 1.75 ± 0.46 |
| QSRGVPAVSESYSAPGACEEPTER [FBXO34] | 5.49 ± 0.18 | 5.49 ± 0.18 |
| QSSFNSLQRVPSYDSFDSEDYPAA [ETS1] | 4.92 ± 0.28 | 4.93 ± 0.21 |
| QSSLLETLYRNRSNLETIFRIIDS [PPEF2] | 2.17 ± 0.25 | 2.15 ± 0.1 |
| QSYKDLCERHEKGVLHKHQRALHK [SNX8] | 3.95 ± 0.2 | 3.92 ± 0.37 |
| QTDHIKGIRQITSDDFCTFQMVLE [GFOD1] | 2.69 ± 0.28 | 2.8 ± 0.25 |
| QTLLGTAKMLLHEGQHPAQLRSDV [PYCR3] | 3.28 ± 0.094 | 3.16 ± 0.39 |
| QTPQVNINPFTPDSLLLHSSGQCR [WEE1] | 3.6 ± 0.24 | 3.86 ± 0.34 |
| QTSSSTFGGGSTRGGSLLAGGGGF [KRT15] | 3.57 ± 0.17 | 3.7 ± 0.23 |
| QVKKTTTRWCHIVRDSDSLAESEF [PHTF1] | 3.44 ± 0.36 | 3.67 ± 0.25 |
| QVLVKDFTFEGFSRLRFLNLGRMI [ZER1] | 2.07 ± 0.22 | 2.08 ± 0.23 |
| QYSGMLDCARRILAREGVAAFYKG [SLC25A25] | 2.38 ± 0.34 | 2.23 ± 0.055 |
| RAKCRNMEHALREKAKAFWAMRRS [TRIM35] | 2.09 ± 0.36 | 2.3 ± 0.34 |
| RAVRDRNLLRDDRVLQNLLTIEER [CCND2] | 3.91 ± 0.21 | 3.89 ± 0.17 |
| RDHSVRVLISNHVTPFDHNIVNLL [AUP1] | 2.1 ± 0.16 | 2.12 ± 0.31 |
| RDKARLLREKVEFLRSLRQMKQKV [NFE2L1] | 2.73 ± 0.15 | 3.14 ± 0.37 |
| REIALAKKHGTQNKRAALQALKRK [CHMP4C] | 4.04 ± 0.14 | 4.29 ± 0.39 |
| REPQEDSQKDLENDPSVNSQAQET [TOR1AIP2] | 5.68 ± 0.15 | 5.61 ± 0.2 |
| REVSSYPSTVGAEAQEEFLRVLGS [DFFB] | 4.33 ± 0.22 | 4.23 ± 0.16 |
| RFALIPAPELVERVQSVDFMRTDP [KLHL14] | 3.26 ± 0.17 | 3.26 ± 0.18 |
| RFLLKETLNQLQSLQNSLECAMET [NECAB1] | 2.29 ± 0.4 | 2.31 ± 0.41 |
| RFTAESYTVLGDTLIDGGEHYWEV [FSD1] | 2.23 ± 0.3 | 2.5 ± 0.43 |

| Sequence | protein stability index (treatment: DMSO) | protein stability index (treatment: MLN4924 1 uM, 8 h) |
| --- | --- | --- |
| RGFCAFLGSWLVPFAYLTVLDLSK [POMT2] | 3.24 ± 0.7 | 3.16 ± 0.25 |
| RGVRRTASTPTPDDKLFQKLAKVY [CPN1] | 2.61 ± 0.29 | 2.86 ± 0.27 |
| RGYWGDIATGPFVAFGIEADDESL [DNAAF3] | 3.65 ± 0.22 | 3.65 ± 0.43 |
| RHRLRWHSFQSSHRPSLNSVSLQI [DLC1] | 2.41 ± 0.1 | 2.58 ± 0.097 |
| RIATETDQIGSEIIEELGEQRDQL [VTI1B] | 5.38 ± 0.2 | 5.37 ± 0.14 |
| RIIDKPRVIEVLPRGATAAVLAPD [SEPHS2] | 3.88 ± 0.23 | 4.08 ± 0.068 |
| RIKGVEVFCPLDPPPPYEAVVSQM [FAM189A2] | 2.83 ± 0.33 | 2.88 ± 0.22 |
| RKDVGCNRFEVTLEKSNKNFSKKI [VPS39] | 3.62 ± 0.22 | 3.98 ± 0.2 |
| RKEMATILSKMPKPKPPPNSEGEQ [CCNC] | 5.06 ± 0.34 | 5.06 ± 0.19 |
| RKRIHDSRVAGFNPALQLILTRTD [TOR1AIP2] | 4.2 ± 0.17 | 4.18 ± 0.19 |
| RKRLAREMQLSEVQIKTWFQNRRM [VENTX] | 2.67 ± 0.24 | 2.73 ± 0.41 |
| RLALEKVPKVGQRFNRIGLPPKVG [PI4K2A] | 3.23 ± 0.3 | 3.21 ± 0.097 |
| RLASYLDKVRALEEANADLEVKIR [KRT16] | 2.39 ± 0.26 | 2.59 ± 0.5 |
| RLATVHMSRMINKYKRRRFQKTKN [CLPTM1] | 3.16 ± 0.36 | 3.54 ± 0.49 |
| RLCRLAGASSPAAYDEALAELHAH [ZSWIM9] | 3.29 ± 0.36 | 3.33 ± 0.2 |
| RLEPLEHRRRTICGTPNYLSPEVL [PLK2] | 3.55 ± 0.19 | 3.67 ± 0.1 |
| RLQQLRRLRGLLRVLRGRPGAGSR [FBXO33] | 2.36 ± 0.21 | 2.66 ± 0.62 |
| RLQRKLVEPKHCFTSPDYQQQCHE [SDE2] | 3.67 ± 0.2 | 3.69 ± 0.2 |
| RLSKELLAEYQDLTFLTKQEILLA [CIB1] | 2.16 ± 0.17 | 2.11 ± 0.22 |
| RLWSLSYTKLPSSLQSTGKCLLYC [SLC25A39] | 2.78 ± 0.62 | 2.73 ± 0.52 |

From the supplement of paper PMC10567573
